Values joined by “and” are separate entries in the source; they are usually repeats but may differ in a detail not shown here. Identical values can stand only once.
What was measured:
Experiment in all cases: cell-based or functional assay
[1] = molecular target: HIV-1 MGRM-A-010 envelope glycoprotein (Env) on pseudovirus (HIV-1)
[2] = molecular target: HIV-1 MGRM-C-028 envelope glycoprotein (Env) on pseudovirus (HIV-1)
[3] = molecular target: HIV-1 NL43 envelope glycoprotein (Env) on pseudovirus (HIV-1)
[4] = molecular target: HIV-1 APV6 envelope glycoprotein (Env) on pseudovirus (HIV-1)
[5] = molecular target: HIV-1 93IN905 envelope glycoprotein (Env) on pseudovirus (HIV-1)
[6] = molecular target: HIV-1 92BR020 envelope glycoprotein (Env) on pseudovirus (HIV-1)
[7] = molecular target: HIV-1 94UG103 envelope glycoprotein (Env) on pseudovirus (HIV-1)
[8] = molecular target: HIV-1 JRCSF envelope glycoprotein (Env) on pseudovirus (HIV-1) (UniProt P20871)
[9] = molecular target: HIV-1 93UG077 envelope glycoprotein (Env) on pseudovirus (HIV-1)
[10] = molecular target: HIV-1 MGRM-C-027 envelope glycoprotein (Env) on pseudovirus (HIV-1)
[11] = molecular target: HIV-1 APV13 envelope glycoprotein (Env) on pseudovirus (HIV-1)
[12] = molecular target: HIV-1 MGRM-C-026 envelope glycoprotein (Env) on pseudovirus (HIV-1)
[13] = molecular target: HIV-1 JRFL envelope glycoprotein (Env) on pseudovirus (HIV-1)
[14] = molecular target: HIV-1 APV17 envelope glycoprotein (Env) on pseudovirus (HIV-1)
[15] = molecular target: HIV-1 92RW020 envelope glycoprotein (Env) on pseudovirus (HIV-1)
[16] = molecular target: HIV-1 Env of pseudovirus 92TH021 (HIV-1)
[17] = molecular target: HIV-1 Env of pseudovirus JRCSF (HIV-1) (UniProt P20871)
[18] = molecular target: HIV-1 Env of pseudovirus MGRM-C-26 (HIV-1)
[19] = molecular target: HIV-1 Env of pseudovirus 92BR020 (HIV-1)
[20] = molecular target: HIV-1 Env of pseudovirus 94UG103 (HIV-1)

PGT-136 monoclonal antibody (5329_C19; 5366_P21), sequence (VH): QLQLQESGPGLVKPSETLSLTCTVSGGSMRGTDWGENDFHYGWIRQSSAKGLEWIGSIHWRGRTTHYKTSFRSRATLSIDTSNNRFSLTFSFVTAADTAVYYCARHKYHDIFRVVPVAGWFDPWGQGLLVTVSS
PGT-136 monoclonal antibody (5329_C19; 5366_P21), sequence (VL): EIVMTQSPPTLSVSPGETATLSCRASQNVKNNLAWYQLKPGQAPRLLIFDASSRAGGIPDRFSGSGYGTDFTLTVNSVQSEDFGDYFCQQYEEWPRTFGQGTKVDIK

| Substance | IC50 neutralization [1] [µg/mL] | IC50 neutralization [2] [µg/mL] | IC50 neutralization [3] [µg/mL] | IC50 neutralization [4] [µg/mL] | IC50 neutralization [5] [µg/mL] | IC50 neutralization [6] [µg/mL] | IC50 neutralization [7] [µg/mL] | IC50 neutralization [8] [µg/mL] | IC50 neutralization [9] [µg/mL] | IC50 neutralization [10] [µg/mL] | IC50 neutralization [11] [µg/mL] | IC50 neutralization [12] [µg/mL] | IC50 neutralization [13] [µg/mL] | IC50 neutralization [14] [µg/mL] | IC50 neutralization [15] [µg/mL] | Primary Neutralization Index (B cell culture supernatant) [16] | Primary Neutralization Index (B cell culture supernatant) [17] | Primary Neutralization Index (B cell culture supernatant) [18] | Primary Neutralization Index (B cell culture supernatant) [19] | Primary Neutralization Index (B cell culture supernatant) [20] |
| --- | --- | --- | --- | --- | --- | --- | --- | --- | --- | --- | --- | --- | --- | --- | --- | --- | --- | --- | --- | --- |
| PGT-123 monoclonal antibody (4858_P08) | 0.492 | 0.443 | > 10 | 0.0328 | 0.0071 | 0.013 | 0.846 | 0.0423 | 0.0303 | 0.0169 | 0.222 | 0.0031 | 0.0283 | 0.18 | 0.0038 |  |  |  |  |  |
| PGT-135 monoclonal antibody (5343_B08; 5344_E16) | > 10 | 2.16 | 6.79 | > 10 | 0.0183 | 0.104 | > 10 | 0.113 | > 10 | > 10 | 0.545 | 0.0123 | > 10 | > 10 | 0.157 |  |  |  |  |  |
| PGT-130 monoclonal antibody (5147_N06) | 0.0054 | > 10 | > 10 | > 10 | 0.0182 | 1.12 | 0.635 | 0.0089 | > 10 | 0.0052 | 0.0345 | 0.0173 | 0.0346 | > 10 | 0.014 |  |  |  |  |  |
| PGT-125 monoclonal antibody (5123_A06) | 0.0055 | 5.78 | > 10 | 0.0359 | 0.0137 | 0.0214 | 0.0124 | 0.006 | 0.0262 | > 10 | 0.0128 | 0.0106 | 0.0156 | 7.31 | 0.0028 |  |  |  |  |  |
| Antibody of B cell culture well 5117_E22 (labelled PGT-133 in Table 26) |  |  |  |  |  |  |  |  |  |  |  |  |  |  |  | 42.5 | 3.6 | 3.4 |  |  |
| PGT-121 monoclonal antibody (4838_L06; 4873_E03) |  |  | > 10 |  |  |  |  |  |  |  |  |  |  |  |  |  |  |  |  |  |
| PGT-122 monoclonal antibody (4877_D15) | 1.68 | 2.06 | > 10 | 0.0851 | 0.0138 | 0.0337 | 1.46 | 0.0727 | 0.191 | 0.0388 | 0.992 | 0.0089 | 0.0471 | 0.522 | 0.0072 |  |  |  |  |  |
| 1496_C09 (PG9) (TCN-109) monoclonal antibody | 0.0375 | 0.121 | 0.687 | 0.214 | 0.048 |  | 0.31 | 0.0048 |  | 2.45 |  | 0.113 |  |  | 0.161 |  |  |  |  |  |
| PGT-121 (B cell culture wells 4838_L06 and 4873_E03) (antibody) |  |  |  |  |  |  |  |  |  |  |  |  |  |  |  |  | 3.2 and 2.2 | 996 and 371 | 4.9 and 3.6 | 1.4 and 0.8 |
| PGT-136 monoclonal antibody (5329_C19; 5366_P21) | > 10 | > 10 | > 10 | > 10 | 0.0135 | > 10 | > 10 | > 10 | > 10 | > 10 | > 10 | 0.0065 | > 10 | > 10 | 0.738 |  |  |  |  |  |
| Antibody of B cell culture well 5113_D22 (labelled PGT-132 in Table 26) |  |  |  |  |  |  |  |  |  |  |  |  |  |  |  | 51 | 3 | 6 |  |  |
| PGT-126 monoclonal antibody (5141_B17) | 0.0033 | 0.283 | > 10 | 0.0249 | 0.0194 | 0.0163 | 0.0091 | 0.0061 | 0.0256 | 1.14 | 0.012 | 0.0076 | 0.014 | 0.501 | 0.0046 |  |  |  |  |  |
| PGT-122 (B cell culture well 4877_D15) (antibody) |  |  |  |  |  |  |  |  |  |  |  |  |  |  |  |  | 2.3 | 37.5 | 5.4 | 1.3 |

From patent publication US20240132578A1
